Test results reported in article PMC3085511 (Nature, 2011).
Like-named read-outs stand apart in the source and are kept apart here.

B1: SHARPIN (SHANK-associated RH domain-interacting protein) (natural protein, human, UniProt Q9H0F6 1-387, looked up)
chain: MAPPAGGAAAAASDLGSAAVLLAVHAAVRPLGAGPDAEAQLRRLQLSADPERPGRFRLELLGAGPGAVNLEWPLESVSYTIRGPTQHELQPPPGGPGTLSLHFLNPQEAQRWAVLVRGATVEGQNGSKSNSPPALGPEACPVSLPSPPEASTLKGPPPEADLPRSPGNLTEREELAGSLARAIAGGDEKGAAQVAAVLAQHRVALSVQLQEACFPPGPIRLQVTLEDAASAASAASSAHVALQVHPHCTVAALQEQVFSELGFPPAVQRWVIGRCLCVPERSLASYGVRQDGDPAFLYLLSAPREAPATGPSPQHPQKMDGELGRLFPPSLGLPPGPQPAASSLPSPLQPSWSCPSCTFINAPDRPGCEMCSTQRPCTWDPLAAAST

What was measured:
[1] = target: T1, mono-ubiquitin (UniProt P0CG48 1-76); assay: ITC
[2] = target: T1, mono-ubiquitin; assay: ITC; remark: listed apart in the source

Binder	binding result [1]	binding result [2]
ARGRWACQSCTFENEAAAVLCSICERPRLA (domain or fragment, human, UniProt Q96EP0 350-379, looked up) [HOIP NZF1 (aa350–379)]	binds	–
AASSLPSPLQPSWSCPSCTFINAPDRPGCEMCSTQRPCTWDPLAAAST (domain or fragment, human, UniProt Q9H0F6 340-387, looked up) [SHARPIN NZF (340–387)]	–	binds
B1	–	binds
